Measurements as given in patent US8133978 (GlaxoSmithKline, dated 2012).

Legend:
[1] = molecular target: T1, Human interleukin-18 (recombinant human IL-18) (human, UniProt Q14116 37-193); experiment: ELISA, antibody on plate, human IL-18 captured, detected by 16D10; room temperature, blocking buffer
T1 construct: also called hIL-18
T1 sequence: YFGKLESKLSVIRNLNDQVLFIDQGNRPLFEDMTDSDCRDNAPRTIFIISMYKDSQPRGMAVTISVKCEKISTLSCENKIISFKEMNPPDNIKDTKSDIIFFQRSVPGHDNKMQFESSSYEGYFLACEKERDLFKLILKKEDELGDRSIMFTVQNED
Method: (§1) ELISA was carried out with the three Humanised H1 variants; H1L1, H1L2 and H1L3 to assess binding to human IL-18 at room temperature and at 37° C. in both human serum and in block solution (PBS 0.05% TWEEN with 1% BSA (w/v)). The Humanised antibody variants were immobilised on Nunc Maxisorp 96-well plates at 2.5 µg/ml. Capture of 5 ng/ml of recombinant human IL-18 was carried out either at room temperature or 37° C. in human serum or block solution. Anti-IL-18 mouse monoclonal antibody 16D10 was added. The bound mouse antibody was detected using anti-mouse kappa peroxidase conjugate (Serotec MCA 1291P). Representative EC50 values generated from the study data are illustrated in Table 9.

[2] = molecular target: T1, Human interleukin-18 (recombinant human …); experiment: ELISA, antibody on plate, human IL-18 captured, detected by 16D10; room temperature, in serum; room temperature incubation, in presence of serum
Method: as §1

[3] = molecular target: T1, Human interleukin-18 (recombinant human …); experiment: ELISA, human IL-18 captured by 16D10, antibody titrated
Method: ELISA with all nine humanised variants was carried out at least 6 times using various batches of purified antibody preparation. FIGS. 4A-4C show representative data from one experiment which generated the EC50 value ranking illustrated in Table 7. Human IL-18 was immobilized on Nunc Maxisorp 96-well plates using 2.5 µg/ml of 16D10 (non-neutralising mouse monoclonal antibody) to capture 5 ng/ml of recombinant human IL-18. Anti-IL-18 humanised antibodies were added at various dilutions. Bound humanised antibodies were detected using anti-human IgG Fc specific peroxidase conjugate (Sigma A0170).

[4] = molecular target: T1, Human interleukin-18 (recombinant human …); experiment: SPR, Biacore T100, antibody captured on Protein A, 15 C
[5] = molecular target: T1, Human interleukin-18 (recombinant human …); experiment: SPR, Biacore T100, Protein A capture, 37 C, mean n = 6
Method: (§2) The methodology was basically the same as for the method used in Example 4a above; Protein A was immobilised on a CM5 chip at densities of between 2000-6000 RU's by primary amine coupling. Runs were carried out in HBS-EP (Biacore™). The anti-IL-18 antibodies were captured to densities of between 100-500 RUs, human IL-18 was passed over this captured surface at concentrations between 16-0.0625 nM, with 0 nM concentration (i.e., a buffer only injection of captured antibody) used for double referencing. Regeneration after each injection of IL-18 was by mild acidic elution using two injections of 10 mM glycine, pH1.5. […] The binding curves obtained were analysed using the analysis software inherent to the T100 machine using the 1:1 model of binding. Runs were carried out at the temperatures indicated.
These experiments were carried out as described above. Table 6 details the kinetic parameters obtained. […] H1L2 has a better on-rate (ka) than H1L1.

[6] = molecular target: T1, Human interleukin-18 (recombinant human …); experiment: SPR, Biacore T100, antibody captured on Protein A, 20 C
Method: as §2
(§3) This experiment was carried out using the above method at various temperatures. […] Table 5 details the kinetic values used to create these figures.

[7] = molecular target: T1, Human interleukin-18 (recombinant human …); experiment: SPR, Biacore 3000, antibody captured on Protein A, 37 C
Method: (§4) Biacore™ kinetic analysis of the humanised 2C10 antibodies was carried out on a Biacore™ 3000 instrument using Protein A capture of the antibodies in HBS-EP buffer (Biacore™). Briefly, Protein A was immobilised on a CM5 chip by primary amine coupling, using manufacturers recommended protocol, to densities around 2000-4000 resonance units (RU's). Humanised antibody was then passed over the Protein A surface and captured to levels of around 200-500 RU's, after a period of stabilisation, IL-18 (human or Rhesus) was passed over the captured antibody surface at defined concentrations and binding sensorgrams were obtained. […] All curves were double referenced against a buffer injection instead of IL-18 and the data was fitted to the 1:1 binding model using the global fit parameters in BiaEval 4.1. Off-rate ranking experiments were set up using the same Protein A capture method, however, only a single concentration of IL-18 was used (10 nM). Whilst the data was fitted using the same binding model as the kinetic analysis, since only one concentration of analyte was used on the off-rate is reported, this value is useful for ranking rather than giving an exact kinetic measurement and was used as a way of selecting which antibodies would be further investigated.
(§5) Based upon these observations selected antibodies were investigated in greater detail for binding to human and Rhesus IL-18 at 37° C. The data shown in Table 4b for human IL-18 is the mean (and standard deviation) of six separate determinations.

Rhesus IL-18 = molecular target: T2, Rhesus IL-18 (rhesus (rhesus/cynomolgus)); experiment: as above
T2 construct: also called Rhesus/Cynomolgus IL-18; rhesus/cynomolgus IL-18
Method: as §4, §5

[8] = molecular target: T1, Human interleukin-18 (recombinant human …); experiment: SPR, Biacore T100, antibody captured on Protein A, 37 C
Method: as §2, §3

EC50 [1]: 3.55 ng/mL | EC50 [2]: 9.79 ng/mL | EC50 [3]: 11 ng/mL | Kd [4]: 0.01 nM | Kd [5]: 0.046 nM | Kd [6]: 0.0089 nM | Kd [7]: 0.197 nM | Kd (Rhesus IL-18): 0.139 nM | Kd [8]: 0.0223 nM
B1: H1L2 humanised anti-IL-18 antibody (antibody, human IgG1, kappa, V domains shown)
VH: QVQLVQSGAEVKKPGASVKVSCKVSGEISTGYYFHWVRQAPGKGLEWMGRIDPEDDSTKYAERFKDRVTMTEDTSTDTAYMELSSLRSEDTAVYYCTTWRIYRDSSGRPFYVMDAWGQGTLVTVSS
VL: DIQMTQSPSSVSASVGDRVTITCLASEDIYTYLTWYQQKPGKAPKLLIYGANKLQDGVPSRFSGSGSGTDYTLTISSLQPEDFATYYCLQGSKFPLTFGQGTKLEIKR
notes: Human IgG1 / kappa
